Consider eight molecules from US20260199463A1 (published 2026).

B1: NEC_M_8 (VHH)
VHH: EVQLLESGGGLVQPGGSLRLSCAASGFTFSSYAMGWYRQAPGKEREFVSSISGSGGLTRYADSVKGRFTISRDNSKNTLYLQMNSLKPEDTAVYYCAVTTGYQGGVYDYWGQGTQVTVSS
A word on the Kd: it is the equilibrium constant for the complex coming apart. Higher therefore signals a looser complex. B1: the Kd was 122 nM in the test with huNec4 and 47 nM with msNec4.

B2: NEC_S_11 (VHH)
VHH: EVQLLESGGGLVQPGGSLRLSCAASGLTSSGYAMGWYRQAPGKERELVSSISSSGGLTHYADSVKGRFTISRDNSKNTLYLQMNSLKPEDTAVYYCDADIAYTGADYWGQGTQVTVSS
For B2, the Kd amounted to 302 nM in the test with huNec4 and 38 nM with msNec4.

B3: NEC_S_55 (VHH)
VHH: EVQLLESGGGLVQPGGSLRLSCAASGFTLSSYAMGWYRQAPGKERELVSSISGSGGSTRYADSVKGRFTISRDNSKNTLYLQMNSLKPEDTAVYYCAAYIGGDYLGQGTQVTVSS
For B3, the Kd amounted to 81 nM with huNec4 and 28 nM in the test with msNec4.

B4: NEC_M_17 (VHH)
VHH: EVQLLESGGGLVQPGGSLRLSCAASGFTYSGYAMGWYRQAPGKERELVSSISGSGTLTSYADSVKGRFTISRDNSKNTLYLQMNSLKPEDTAVYYCDVDIPVGDATTVGDYWGQGTQVTVSS
Regarding B4, the equilibrium dissociation constant (Kd) with huNec4 was found to be 10 nM; with msNec4, 11 nM.

B5: NEC_M_46 (VHH)
VHH: EVQLLESGGGLVQPGGSLRLSCAASGYTFSDYAMGWYRQAPGKERELVSSISGSGGSTRYADSVKGRFTISRDNSKNTLYLQMNSLKPEDTAVYYCAAVIRQPSTGFYEYWGQGTQVTVSS
Turning to B5, the Kd is 19 nM in the test with huNec4 and 14 nM with msNec4.

B6: NEC_M_44 (VHH)
VHH: EVQLLESGGGLVQPGGSLRLSCAASGRTLSSYAMGWYRQAPGKERELVSSISGSGGSTRYADSVKGRFTISRDNSKNTLYLQMNSLKPEDTAVYYCAVYILELAPGAEYWGQGTQVTVSS
On to B6, for which the dissociation constant (Kd) in the test with huNec4 came to 33 nM; with msNec4, 27 nM.

B7: NEC_S_31 (VHH)
VHH: EVQLLESGGGLVQPGGSLRLSCAASGFTYSSYAMGWYRQAPGKERELVSSISGSGGSTRYADSVKGRFTISRDNSKNTLYLQMNSLKPEDTAVYYCAVAIGVGDYWGQGTQVTVSS
As for B7, the dissociation constant Kd is 84 nM with huNec4 and 10 nM with msNec4.

B8: NEC_M_5 (VHH)
VHH: EVQLLESGGGLVQPGGSLRLSCAASGLSFSSYSMGWYRQAPGKEREFVSAISGSSGSTNYADSVKGRFTISRDNSKNTLYLQMNSLKPEDTAVYYCAAEHRVTTSGVFYDYWGQGTQVTVSS
Turning to B8, the dissociation constant Kd in the test with huNec4 was 28 nM; in the test with msNec4, 8060 nM.
